Molecular target: T1, glutathione S transferase (GST)-SQUAMOSA PROMOTER BINDING PROTEIN-LIKE9 (SPL9) (Arabidopsis thaliana, UniProt Q700W2 1-375)
T1 construct: SPL9, Arabidopsis thaliana; full-length cDNA without stop codon recombined into pDEST15 (N-GST); also called GST-SPL9; source: Escherichia coli, purified; not shown: GST, N-terminal, kept
T1 sequence (looked up): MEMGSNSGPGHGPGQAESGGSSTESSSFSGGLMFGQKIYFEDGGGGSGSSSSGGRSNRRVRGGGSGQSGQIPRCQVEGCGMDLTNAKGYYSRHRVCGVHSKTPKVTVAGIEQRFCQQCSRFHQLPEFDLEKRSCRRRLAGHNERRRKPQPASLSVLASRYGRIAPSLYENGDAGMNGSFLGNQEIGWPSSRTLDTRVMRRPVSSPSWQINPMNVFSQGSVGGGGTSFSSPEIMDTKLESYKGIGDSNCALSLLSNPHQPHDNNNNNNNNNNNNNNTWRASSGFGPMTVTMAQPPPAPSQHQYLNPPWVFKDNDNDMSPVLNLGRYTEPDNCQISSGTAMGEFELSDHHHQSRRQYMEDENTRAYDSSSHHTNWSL
Assay: pull-down; glutathione beads with 1 µg GST-SPL9 incubated with 1 µg MBP or MBP-BZR1; 20 mM Tris-HCl pH 7.5, 100 mM NaCl, 1 mM EDTA, 4 °C, 1 h; washed 10 times with 300 mM NaCl, 0.5% TritonX-100; anti-MBP and anti-GST blots
Conditions: both partners purified

binding result: binds
B1: Maltose binding protein (MBP)-BRASSINAZOLE RESISTANT 1 (BZR1) (natural protein, Arabidopsis thaliana, UniProt Q8S307 1-336, looked up)
chain: MTSDGATSTSAAAAAAAAAAARRKPSWRERENNRRRERRRRAVAAKIYTGLRAQGDYNLPKHCDNNEVLKALCVEAGWVVEEDGTTYRKGCKPLPGEIAGTSSRVTPYSSQNQSPLSSAFQSPIPSYQVSPSSSSFPSPSRGEPNNNMSSTFFPFLRNGGIPSSLPSLRISNSCPVTPPVSSPTSKNPKPLPNWESIAKQSMAIAKQSMASFNYPFYAVSAPASPTHRHQFHTPATIPECDESDSSTVDSGHWISFQKFAQQQPFSASMVPTSPTFNLVKPAPQQMSPNTAAFQEIGQSSEFKFENSQVKPWEGERIHDVGMEDLELTLGNGKARG
notes: BZR1, Arabidopsis thaliana; also called MBP-BZR1; MBP-fused BZR1; source: Escherichia coli, purified
